The results in this text go back to patent US6713610.

The Kd is the concentration at which binding is half-saturated. As a reminder, the koff is the first-order rate constant of dissociation. As a reminder, the kon is a measure of how fast the partners come together.

Assay [1] addresses T1, human recombinant IL-8 (human, UniProt P10145 28-99).
T1 construct: also called hIL8; h-IL-8
T1 sequence (looked up): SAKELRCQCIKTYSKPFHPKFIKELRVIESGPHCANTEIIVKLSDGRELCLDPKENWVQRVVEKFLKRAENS
The experiment in a line: BIAcore SPR, IL-8 immobilized (81 RU surface), hybridoma supernatant as analyte. For orientation: SPR reads the build-up and loss of mass on a sensor chip optically.

Assay [2] concerns the target T1, human recombinant IL-8. Put plainly: BIAcore SPR, IL-8 immobilized (134 RU surface), hybridoma supernatant as analyte.

B1: I8K4.2 (antibody, V domains shown)
VH: SLTCAVYGGSFSGYYWTWIRQPPGKGLEWIGEIIHHGNTNYNPSLKSRVSISVDTSKNQFSLTLSSVTAADTAVYYCARGGAVAAFDYWGQGTLVTVSS
VL: TQSPSSLSASVGDRVTITCQASQDISNYLNWYQQKAGKAPKVLIYAASNLEAGVPSRFSGSGSGTDFTFTISSLQPEDIATYYCQHYDNLLTFGGGTKVEIKR
For the molecule B1, in assay [1], the Kd was 0.142 nM, the off-rate (koff) was determined as 0.000817 s⁻¹ and the kon amounted to 5.76e+06 M⁻¹ s⁻¹. In assay [2], the equilibrium dissociation constant (Kd) was found to be 0.196 nM, the koff worked out at 0.000384 s⁻¹ and the kon stood at 1.95e+06 M⁻¹ s⁻¹.
